{"source": "paper PMC3175489", "binders": {"B1": {"name": "NANOG cognate probe (Tcf3 enhancer) (dsDNA)", "DNA 1": "ACCTGTTAATGGGAGCGC", "DNA 2": "GCGCTCCCATTAACAGGT"}, "B2": {"name": "SOX2 cognate probe (CR4 POU5F1) (dsDNA)", "DNA 1": "GCAGAGGACAAAGGTGCCGTG", "DNA 2": "CACGGCACCTTTGTCCTCTGC"}, "B3": {"name": "nonsense probe (dsDNA)", "DNA 1": "GCCCGATTACTCTGTCCT", "DNA 2": "AGGACAGAGTAATCGGGC"}}, "key": {"NANOG": {"molecular_target": "NANOG (human, UniProt Q9H9S0 1-305)", "sequence (Q9H9S0 whole entry)": "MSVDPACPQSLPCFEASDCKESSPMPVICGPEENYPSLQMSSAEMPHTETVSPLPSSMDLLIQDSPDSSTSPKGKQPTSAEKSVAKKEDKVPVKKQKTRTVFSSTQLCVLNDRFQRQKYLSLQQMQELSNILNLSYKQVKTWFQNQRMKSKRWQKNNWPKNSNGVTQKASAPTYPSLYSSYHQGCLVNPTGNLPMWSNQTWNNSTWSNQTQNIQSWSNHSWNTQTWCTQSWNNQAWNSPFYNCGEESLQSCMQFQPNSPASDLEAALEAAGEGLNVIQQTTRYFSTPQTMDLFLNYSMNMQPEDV", "test": "Ni-NTA filter microplate fluorescent DNA binding"}, "SOX2 [1]": {"molecular_target": "T1, SOX2 (human, UniProt P48431 1-317)", "T1 sequence (P48431 whole entry)": "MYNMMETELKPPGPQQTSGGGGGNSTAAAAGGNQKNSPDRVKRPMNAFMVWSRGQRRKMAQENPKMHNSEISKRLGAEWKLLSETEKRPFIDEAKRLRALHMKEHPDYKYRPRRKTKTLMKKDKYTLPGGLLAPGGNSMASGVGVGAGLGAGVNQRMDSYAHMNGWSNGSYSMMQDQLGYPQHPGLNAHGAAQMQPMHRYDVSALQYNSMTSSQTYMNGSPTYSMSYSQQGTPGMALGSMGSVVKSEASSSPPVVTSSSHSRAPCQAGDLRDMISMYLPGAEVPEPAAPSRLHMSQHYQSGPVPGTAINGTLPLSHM", "test": "Ni-NTA filter microplate fluorescent DNA binding"}, "SOX2 [2]": {"molecular_target": "T1, SOX2", "test": "competition"}}}
{"binder": "B1", "values": [{"measurement": "Kd", "setting": "NANOG", "value": "44 ± 6", "unit": "nM"}]}
{"binder": "B2", "values": [{"measurement": "Kd", "setting": "SOX2 [1]", "value": "54.2 ± 9", "unit": "nM"}]}
{"binder": "B3", "values": [{"measurement": "binding result", "setting": "SOX2 [2]", "value": "no binding"}]}
